Assay results from PMC10319324, “Ηigh-resolution structure of mammalian PI31–20S proteasome complex reveals mechanism of proteasome inhibition” (The Journal of Biological Chemistry, 2023).
Positions count from the first letter of the chain named. Names and notes keep the numbering of the source. Values belong to the binder of their own block, whether it stands above or below them.

Legend:
[1] = molecular target: T1, recombinant wildtype human PI31 (Proteasome Inhibitor of 31,000 Da) (human, UniProt Q92530 1-271); test: cryo-EM structure; purified hPI31 and bovine 20S mixed at a molar ratio of 5:1, 37 °C for 1 h in 20 mM Tris, pH 7.5, 5 mM MgCl2, 100 mM KCl, 1 mM DTT; latent closed-gate 20S; C1 map at 2.54 Å; settings: both partners purified
T1 construct: PI31, product of the PSMF1 gene, human; The methods name a pET28a(+) vector with N-terminally tagged wildtype hPI31 and 'His-PI31 (wildtype)' for mass photometry; Exists in a monomer-dimer equilibrium; also called hPI31; hPI31^WT; source: E. coli, purified; not shown: His tag, N-terminal, kept
T1 sequence (looked up): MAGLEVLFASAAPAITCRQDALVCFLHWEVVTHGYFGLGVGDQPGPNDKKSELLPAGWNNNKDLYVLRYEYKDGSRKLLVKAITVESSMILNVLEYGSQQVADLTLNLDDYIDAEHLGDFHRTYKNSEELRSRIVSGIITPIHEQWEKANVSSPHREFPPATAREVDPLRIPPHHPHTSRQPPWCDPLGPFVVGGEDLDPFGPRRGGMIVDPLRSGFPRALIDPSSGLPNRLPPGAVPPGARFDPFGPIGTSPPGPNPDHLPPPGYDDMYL

bovine 20S proteasome = bovine 20S proteasome (bovine, UniProt Q2YDE4 1-246; Q3T0Y5 1-234; Q3ZCK9 1-261; Q3ZBG0 1-248; Q5E987 1-241; Q3T0X5 …); test: cell-based or functional assay
[2] = molecular target: the molecule itself; test: mass photometry; monomer to dimer; His-PI31 diluted to 40 nM total monomer in PBS, recorded immediately after mixing (TwoMP, Refeyn); peaks at 36 to 37 and 56 to 59 kDa

B1: β5 subunit of the bovine 20S proteasome (natural protein, UniProt Q32KL2 60-263, looked up)
chain: TTTLAFKFRHGVIVAADSRATAGAYIASQTVKKVIEINPYLLGTMAGGAADCSFWERLLARQCRIYELRNKERISVAAASKLLANMVYQYKGMGLSMGTMICGWDKRGPGLYYVDSEGNRISGATFSVGSGSVYAYGVMDRGYSYDLEVEEAYDLARRAIYQATYRDAYSGGSVSLYHVREDGWIRVSSDNVADLHDKYSGSTH
notes: Stood in the assay as a subunit of the assembled 20S proteasome; also called β5 active site; β5 catalytic site; source: purified from bovine red blood cells, as part of the 20S proteasome
binding result [1]: binds

B4: β2 subunit of the bovine 20S proteasome (natural protein, UniProt Q2TBP0 44-277, looked up)
chain: TTIAGVVYKDGIVLGADTRATEGMVVADKNCSKIHFISPNIYCCGAGTAADTDMTTQLISSNLELHSLSTGRLPRVVTANRMLKQMLFRYQGYIGAALVLGGVDVTGPHLYSIYPHGSTDKLPYVTMGSGSLAAMAVFEDKFRPDMEEEEAKKLVSEAIAAGIFNDLGSGSNIDLCVISKSKLDFLRPYSVPNKKGTRFGRYRCEKGTNAVLTEKVTTLEIEVLEETVQTMDTS
notes: Stood in the assay as a subunit of the assembled 20S proteasome; also called β2 active site; β2 catalytic site; source: purified from bovine red blood cells, as part of the 20S proteasome
binding result [1]: binds

Now from value to binder, other results behind:

[monomer] at 50% inhibitory activity against SDS-activated 20S (50 nM), PI31 up to 10-fold molar excess (bovine 20S proteasome): 200 nM
inhibition of the catalytic activity of each subunit type (β1, β2, β5 peptide substrates), PI31 at 10- to 20-fold molar excess (bovine 20S proteasome): > 95%
B2: human PI31 C-terminal domain, residues 152-271 (domain or fragment, UniProt Q92530 152-271, looked up)
chain: SSPHREFPPATAREVDPLRIPPHHPHTSRQPPWCDPLGPFVVGGEDLDPFGPRRGGMIVDPLRSGFPRALIDPSSGLPNRLPPGAVPPGARFDPFGPIGTSPPGPNPDHLPPPGYDDMYL

[monomer] at 50% inhibitory activity against SDS-activated 20S (50 nM), PI31 up to 10-fold molar excess (bovine 20S proteasome): 108 nM
B3: human PI31 V6R dimerization mutant (natural protein, UniProt Q92530 1-271, looked up)
chain: T1 sequence (looked up) with V6R
notes: PI31, product of the PSMF1 gene, human; point mutation V6R in the FP domain, made on the pET28a(+)-HisPI31^wt template; also called hPI31^V6R; source: E. coli BL21 Star (DE3), purified (Ni-NTA); not shown: His tag, N-terminal, kept
[monomer]/[M]T ratio [2]: 0.54
